These results are taken from patent US20100184186A1, “NOVEL RIGIDOPORUS MICROPORUS LACCASE” (Academia Sinica, priority 2009, published 2010).

A short description of series [1]: ABTS overlay activity assay on basic-native PAGE gel. Type of series: biochemical. The following applies: ABTS reaction buffer 1 mM, pH 3, room temperature. As for the experimental part:
The laccase activity of this 55kDa protein was determined by an [2,2-azinobis(3-ethylbenzathiazoline-6-sulfonic acid)] (ABTS) overlay activity assay. See Lebendiker M BASIC-NATIVE GEL Protocol, wolfson.huji.ac.il/purification/Protocols/PAGE_Basic.html. A basic-native PAGE gel containing the 55 kDa protein was incubated in an ABTS reaction buffer (1 mM, pH 3) at room temperature.

The nature of series [2]: Isoelectric focusing with PhastGel IEF 3-9. The series is classed as physicochemical. As for the experimental part:
First, the isoelectric focusing point of Lcc35 was determined with PhastGel IEF 3-9 (GE Healthcare), following the method described in Hackler et al., Anal. Biochem. 1995, 230, (2), 281-289. Briefly, the Lcc35-containing solution mentioned above was loaded on a PhastGel IEF 3-9 gel.

Series [3] can be described thus: Laccase activity under various pH conditions, ABTS substrate. The series is classed as biochemical. The following applies: 30° C., 1 min. The procedure:
(§1) Next, the laccase activities of Lcc35 under various pH conditions were determined, following the method described in Lu et al., Appl. Microbiol. Biotechnol., 2007, 74, (6), 1232-1239. 0.01 ml of the Lcc35-containing solution was mixed with (i) 0.49 ml of a 50 mM reaction buffer of glycine-HCl (pH 2.0 to 3.0), sodium acetate (pH 4.0 to 6.0), or sodium phosphate (pH 7.0 to 8.0) and (ii) 0.5 ml of a substrate solution containing 2 mM ABTS, 1 mM [N,N′-bis(3,5-dimethoxy-4-hydroxybenzylidene)hydrazine] (SGZ), or 0.04% RBBR. After being incubated at 30° C. for 1 min (when ABST or SGZ was the substrate) or for 4 hours (when RBBR was the substrate), each of the reaction mixtures was examined with a spectrophotometer to determine its optical density at 420 nm (when ABST was the substrate), at 530 nm (when SGZ was the substrate), or at 585 nm (when RBBR was the substrate). One unit of laccase activity was defined as the amount of Lcc35 that oxidized 1 μmol substrate per min.

Series [4] is described as follows: Laccase activity under various pH conditions, SGZ substrate. The following applies: 30° C., 1 min. The series is classed as biochemical. As for the experimental part: as §1
Series [5] in a line: Laccase activity under various pH conditions, RBBR de-colorization. Type of series: biochemical. The following applies: RBBR substrate, 30° C., 4 hours. As for the experimental part:
as §1

The nature of series [6]: Optimal pH with artificial lignin on agar micro-titer plate. The series is classed as biochemical. The following applies: 0.1% lignin substrate, 30° C., 4 hr. As for the experimental part:
The optimal pH of Lcc35 was also examined using an artificial lignin as a substrate, as follows. Each of the reaction buffers listed above was mixed with 0.1% lignin (Sigma #471003) and the mixture was placed in wells of an agar micro-titter plate. 10 μl of the Lcc35-containing suspension was placed at the center of each well. The agar plate was incubated at 30° C. for 4 hr to allow degradation of the artificial lignin by Lcc35.

Another series is described as follows: pH stability of Lcc35. The series is classed as physicochemical. The settings on record: incubated at 30° C. for 20 hours, ABTS substrate. The procedure: The Lcc35 solution was incubated under various pH conditions at 30° C. 20 hours later, the laccase activity in the solution was determined, using ABST as the substrate.
A short description of series [7]: Laccase activity at various temperatures. Type of series: biochemical. The settings on record: ABTS substrate, sodium acetate buffer pH 5.0, 1 minute, 25-90° C. The procedure:
The laccase activity of Lcc35 was determined at various temperatures (i.e., ranging from 25-90° C.), using ABST as the substrate. The Lcc35-containing solution was incubated with ABST and a sodium acetate buffer (pH 5.0) for 1 minute and the enzymatic activity was examined afterwards.

Series [8] is described as follows: Thermal stability of Lcc35. Type of series: physicochemical. The following applies: pH 6.0, 30-70° C. for 10, 30 or 60 minutes. As for the experimental part:
To determine thermal stability of Lcc35, the enzyme solution was incubated under pH 6.0 at various temperatures (i.e., 30° C., 40° C., 50° C., 60° C., and 70° C.) for 10, 30, or 60 minutes.

Series [9] in a line: Activity comparison with T. versicolor laccase, ABTS assay. The series is classed as biochemical. The procedure: as §1
(§2) The laccase activity of Lcc35 was compared with Trametes versicolor laccase (provided by Fluka Co.), using either ABST or SGZ as the substrate according to the methods described above.

Series [10] in a line: Activity comparison with T. versicolor laccase, SGZ assay. The series is classed as biochemical. The following applies: SGZ substrate; laccase amount by SDS-PAGE and ImageQuant TL 7.0. The procedure: as §1, §2
Series [11] is described as follows: Enzymatic activity of purified Lcc35. Type of series: biochemical. The following applies: isolated as in Example 1; culture with 1 mM 4-hydroxybenzoic acid. The procedure:
To isolate the laccase from R. microporus BCRC 35318, eight-day-old mycelial disks (8 mm in diameter) collected from the PDA plate mentioned above were inoculated into a basal medium containing (per liter) 10 g glucose, 0.22 g ammonium tartrate, 0.9 g K2HPO4, 0.1 g KH2PO4, 0.05 g MgSO4.7H2O, 0.5 g CaCl2, 0.01 g Thiamine HCl, and 10 ml solution (0.08 g CuSO4.5H2O, 0.07 g MnSO4.4H2O, 4.3 g ZnSO4.7H2O and 0.05 g FeSO4.7H2O per liter). The pH of the medium was adjusted to 5.5. After being cultured for 10 days at 30° C. in a rotary shaker with a speed setting of 125 rpm, the supernatant of the fungal culture thus obtained was collected and passed through a […] filter (Nalgene) to remove fungal cells. The filtrate was mixed with 100% ammonium sulfate for protein precipitation. The precipitated proteins were dissolved in 40 ml of a 10 mM sodium acetate buffer (pH 6.0) and the resultant solution was dialyzed against the same acetate buffer overnight to remove co-precipitated ammonium sulfate and then concentrated to 4 ml by ultracentrifugal filteration with a molecular cutoff of 10 kDa (Amicon).
See Cambria et al., Protein Expr. Purif. 2000, 18, (2), 141-147; and Liu et al., Appl. Microbiol. Biotechnol. 2003, 63, (2), 174-181. Following the isolation process described in Example 1 above, purified Lcc35 was obtained with a recovery rate of about 55% and an enzymatic activity of 289.8 U/ml.

B1: Lcc35: novel laccase isolated from R. microporus BCRC 35318; mature form SEQ ID NO:1, precursor SEQ ID NO:2 (protein)
chain: SVGPVADIPIVNANLSPDGFTRTTVLAGGTFPGPLIVGNKGDNFKLNVVDQLTDANQLKTTTIHWHGFFQHGTNWADGPAFVNQCPIASGNSFLYDFSAADQAGTFWYHSHLSTQYCDGLRGAFVVYDPSDPNASLYDVDNESTVITLADWYHTLARLGARFPTPDSTLINGLGRFAGGPASDLSVITVESGKRYRFRLVSISCDPNYTFSIDGHDMTIIEVNGINHDALSVDSIQIFAGQRYSFVLNANQAVGNYWIRANPNIGTRGFSGGINSAILRYVGADAVEPTTSQGTSTKPLVETNLHPSQNPGAVGSPTPGGVDLALNLALGFAGGSFTINGATFTSPTVPVLLQILSGAQSATDLLPSGSVFTLPGDSTIEISMPAGVAGGPHPFHLHGHAFDVVRASGSSTYNYANPVRRDVVSLGAAGDNVTIRFKTDNPGPWFLHCHIDWHLEAGLAIVFAEDTPNTAAINPVPQAWSDLCPIYNALAESDH
modifications: RIGIDOPORUS MICROPORUS
Turning to B1, in series [1], the “laccase activity (color change around the 55 kDa band)” value is “high laccase activity”. This molecule also displayed a pI value in [2] of 3.98. The “pH of highest laccase activity” value in series [3] is 3-5; in [4], 5-6; in series [5], 5-6; in [6], 5-6. The “pH at which Lcc35 was more stable” value in “pH stability of Lcc35” is reported as 6. Further, in series [7], the “temperature of highest laccase activity” value was determined as 70 °C. For the same molecule, the “temperature below which Lcc35 was stable” value in series [8] was “below 50 °C”. In addition, the “laccase-specific activity relative to T. versicolor laccase” value in [9] (ABTS or SGZ as the substrate) is listed as 2-3 fold. Moreover, the “ABTS assay, laccase-specific activity” value in [9] (ABTS substrate, laccase amount by SDS-PAGE and ImageQuant TL 7.0) was found to be 3800 U mg^−1. The “SGZ assay, laccase-specific activity” value in series [10] is on record as 1700 U mg^−1. Further, in series [11], the “enzymatic activity of purified Lcc35” value was determined as 289.8 U/ml.
